Data published in ChEMBL document CHEMBL3508693.

Legend:
Assay type in all cases: ADME, microsomes
[1] = substrate: COCCCOc1cc(C[C@@H](C[C@H](N)[C@@H](O)C[C@H](C(=O)NCC(C)(C)C(N)=O)C(C)C)C(C)C)ccc1OC; assay: Enzyme kinetics constant (Km value) for CYP3A5 was determined in human liver microsome incubated with [14C]SPP100 hemifumarate
[2] = substrate: COCCCOc1cc(C[C@@H](C[C@H](N)[C@@H](O)C[C@H](C(=O)NCC(C)(C)C(N)=O)C(C)C)C(C)C)ccc1OC; assay: Enzyme kinetics constant (Km value) for CYP2D6 was determined in human liver microsome incubated with [14C]SPP100 hemifumarate
[3] = substrate: COCCCOc1cc(C[C@@H](C[C@H](N)[C@@H](O)C[C@H](C(=O)NCC(C)(C)C(N)=O)C(C)C)C(C)C)ccc1OC; assay: Enzyme kinetics constant (Km value) for CYP4F3B was determined in human liver microsome incubated with [14C]SPP100 hemifumarate
[4] = substrate: COCCCOc1cc(C[C@@H](C[C@H](N)[C@@H](O)C[C@H](C(=O)NCC(C)(C)C(N)=O)C(C)C)C(C)C)ccc1OC; assay: Enzyme kinetics constant (Km value) for CYP2J2 was determined in human liver microsome incubated with [14C]SPP100 hemifumarate
[5] = substrate: COCCCOc1cc(C[C@@H](C[C@H](N)[C@@H](O)C[C@H](C(=O)NCC(C)(C)C(N)=O)C(C)C)C(C)C)ccc1OC; assay: Enzyme kinetics constant (Km value) for CYP2E1 was determined in human liver microsome incubated with [14C]SPP100 hemifumarate
[6] = substrate: COCCCOc1cc(C[C@@H](C[C@H](N)[C@@H](O)C[C@H](C(=O)NCC(C)(C)C(N)=O)C(C)C)C(C)C)ccc1OC; assay: Enzyme kinetics constant (Km value) for CYP3A7 was determined in human liver microsome incubated with [14C]SPP100 hemifumarate
[7] = substrate: COCCCOc1cc(C[C@@H](C[C@H](N)[C@@H](O)C[C@H](C(=O)NCC(C)(C)C(N)=O)C(C)C)C(C)C)ccc1OC; assay: Enzyme kinetics constant (Km value) for CYP4F2 was determined in human liver microsome incubated with [14C]SPP100 hemifumarate
[8] = substrate: COCCCOc1cc(C[C@@H](C[C@H](N)[C@@H](O)C[C@H](C(=O)NCC(C)(C)C(N)=O)C(C)C)C(C)C)ccc1OC; assay: Enzyme kinetics constant (Km value) for CYP4A11 was determined in human liver microsome incubated with [14C]SPP100 hemifumarate

B1: Cytochrome P450 3A5 (Homo sapiens) (protein)
chain: MDLIPNLAVETWLLLAVSLVLLYLYGTRTHGLFKRLGIPGPTPLPLLGNVLSYRQGLWKFDTECYKKYGKMWGTYEGQLPVLAITDPDVIRTVLVKECYSVFTNRRSLGPVGFMKSAISLAEDEEWKRIRSLLSPTFTSGKLKEMFPIIAQYGDVLVRNLRREAEKGKPVTLKDIFGAYSMDVITGTSFGVNIDSLNNPQDPFVESTKKFLKFGFLDPLFLSIILFPFLTPVFEALNVSLFPKDTINFLSKSVNRMKKSRLNDKQKHRLDFLQLMIDSQNSKETESHKALSDLELAAQSIIFIFAGYETTSSVLSFTLYELATHPDVQQKLQKEIDAVLPNKAPPTYDAVVQMEYLDMVVNETLRLFPVAIRLERTCKKDVEINGVFIPKGSMVVIPTYALHHDPKYWTEPEEFRPERFSKKKDSIDPYIYTPFGTGPRNCIGMRFALMNMKLALIRVLQNFSFKPCKETQIPLKLDTQGLLQPEKPIVLKVDSRDGTLSGE
- Km [1]: 28.7 µM
- Vmax [1]: 0.00135 µmol/min/mg

B2: Cytochrome P450 2D6 (Homo sapiens) (protein)
chain: MGLEALVPLAVIVAIFLLLVDLMHRRQRWAARYPPGPLPLPGLGNLLHVDFQNTPYCFDQLRRRFGDVFSLQLAWTPVVVLNGLAAVREALVTHGEDTADRPPVPITQILGFGPRSQGVFLARYGPAWREQRRFSVSTLRNLGLGKKSLEQWVTEEAACLCAAFANHSGRPFRPNGLLDKAVSNVIASLTCGRRFEYDDPRFLRLLDLAQEGLKEESGFLREVLNAVPVLLHIPALAGKVLRFQKAFLTQLDELLTEHRMTWDPAQPPRDLTEAFLAEMEKAKGNPESSFNDENLRIVVADLFSAGMVTTSTTLAWGLLLMILHPDVQRRVQQEIDDVIGQVRRPEMGDQAHMPYTTAVIHEVQRFGDIVPLGVTHMTSRDIEVQGFRIPKGTTLITNLSSVLKDEAVWEKPFRFHPEHFLDAQGHFVKPEAFLPFSAGRRACLGEPLARMELFLFFTSLLQHFSFSVPTGQPRPSHHGVFAFLVSPSPYELCAVPR
- Km [2]: 73.6 µM
- Vmax [2]: 0.00548 µmol/min/mg

B3: Cytochrome P450 4F3 (Homo sapiens) (protein)
chain: MPQLSLSSLGLWPMAASPWLLLLLVGASWLLARILAWTYTFYDNCCRLRCFPQPPKRNWFLGHLGLIHSSEEGLLYTQSLACTFGDMCCWWVGPWHAIVRIFHPTYIKPVLFAPAAIVPKDKVFYSFLKPWLGDGLLLSAGEKWSRHRRMLTPAFHFNILKPYMKIFNESVNIMHAKWQLLASEGSARLDMFEHISLMTLDSLQKCVFSFDSHCQEKPSEYIAAILELSALVTKRHQQILLYIDFLYYLTPDGQRFRRACRLVHDFTDAVIQERRRTLPSQGVDDFLQAKAKSKTLDFIDVLLLSKDEDGKKLSDEDIRAEADTFMFEGHDTTASGLSWVLYHLAKHPEYQERCRQEVQELLKDREPKEIEWDDLAQLPFLTMCIKESLRLHPPVPAVSRCCTQDIVLPDGRVIPKGIICLISVFGTHHNPAVWPDPEVYDPFRFDPKNIKERSPLAFIPFSAGPRNCIGQAFAMAEMKVVLGLTLLRFRVLPDHTEPRRKPELVLRAEGGLWLRVEPLS
- Km [3]: 5 µM
- Vmax [3]: 0.000121 µmol/min/mg

B4: Cytochrome P450 2J2 (Homo sapiens) (protein)
chain: MLAAMGSLAAALWAVVHPRTLLLGTVAFLLAADFLKRRRPKNYPPGPWRLPFLGNFFLVDFEQSHLEVQLFVKKYGNLFSLELGDISAVLITGLPLIKEALIHMDQNFGNRPVTPMREHIFKKNGLIMSSGQAWKEQRRFTLTALRNFGLGKKSLEERIQEEAQHLTEAIKEENGQPFDPHFKINNAVSNIICSITFGERFEYQDSWFQQLLKLLDEVTYLEASKTCQLYNVFPWIMKFLPGPHQTLFSNWKKLKLFVSHMIDKHRKDWNPAETRDFIDAYLKEMSKHTGNPTSSFHEENLICSTLDLFFAGTETTSTTLRWALLYMALYPEIQEKVQAEIDRVIGQGQQPSTAARESMPYTNAVIHEVQRMGNIIPLNVPREVTVDTTLAGYHLPKGTMILTNLTALHRDPTEWATPDTFNPDHFLENGQFKKREAFMPFSIGKRACLGEQLARTELFIFFTSLMQKFTFRPPNNEKLSLKFRMGITISPVSHRLCAVPQV
- Km [4]: 67 µM
- Vmax [4]: 0.000604 µmol/min/mg

B5: Cytochrome P450 2E1 (Homo sapiens) (protein)
chain: MSALGVTVALLVWAAFLLLVSMWRQVHSSWNLPPGPFPLPIIGNLFQLELKNIPKSFTRLAQRFGPVFTLYVGSQRMVVMHGYKAVKEALLDYKDEFSGRGDLPAFHAHRDRGIIFNNGPTWKDIRRFSLTTLRNYGMGKQGNESRIQREAHFLLEALRKTQGQPFDPTFLIGCAPCNVIADILFRKHFDYNDEKFLRLMYLFNENFHLLSTPWLQLYNNFPSFLHYLPGSHRKVIKNVAEVKEYVSERVKEHHQSLDPNCPRDLTDCLLVEMEKEKHSAERLYTMDGITVTVADLFFAGTETTSTTLRYGLLILMKYPEIEEKLHEEIDRVIGPSRIPAIKDRQEMPYMDAVVHEIQRFITLVPSNLPHEATRDTIFRGYLIPKGTVVVPTLDSVLYDNQEFPDPEKFKPEHFLNENGKFKYSDYFKPFSTGKRVCAGEGLARMELFLLLCAILQHFNLKPLVDPKDIDLSPIHIGFGCIPPRYKLCVIPRS
- Km [5]: 31.9 µM
- Vmax [5]: 4.62e-05 µmol/min/mg

B6: Cytochrome P450 3A7 (Homo sapiens) (protein)
chain: MDLIPNLAVETWLLLAVSLILLYLYGTRTHGLFKKLGIPGPTPLPFLGNALSFRKGYWTFDMECYKKYRKVWGIYDCQQPMLAITDPDMIKTVLVKECYSVFTNRRPFGPVGFMKNAISIAEDEEWKRIRSLLSPTFTSGKLKEMVPIIAQYGDVLVRNLRREAETGKPVTLKHVFGAYSMDVITSTSFGVSIDSLNNPQDPFVENTKKLLRFNPLDPFVLSIKVFPFLTPILEALNITVFPRKVISFLTKSVKQIKEGRLKETQKHRVDFLQLMIDSQNSKDSETHKALSDLELMAQSIIFIFAGYETTSSVLSFIIYELATHPDVQQKVQKEIDTVLPNKAPPTYDTVLQLEYLDMVVNETLRLFPVAMRLERVCKKDVEINGMFIPKGVVVMIPSYVLHHDPKYWTEPEKFLPERFSKKNKDNIDPYIYTPFGSGPRNCIGMRFALVNMKLALVRVLQNFSFKPCKETQIPLKLRFGGLLLTEKPIVLKAESRDETVSGA
- Km [6]: 32.6 µM
- Vmax [6]: 0.000113 µmol/min/mg

B7: Cytochrome P450 4F2 (Homo sapiens) (protein)
chain: MSQLSLSWLGLWPVAASPWLLLLLVGASWLLAHVLAWTYAFYDNCRRLRCFPQPPRRNWFWGHQGMVNPTEEGMRVLTQLVATYPQGFKVWMGPISPLLSLCHPDIIRSVINASAAIAPKDKFFYSFLEPWLGDGLLLSAGDKWSRHRRMLTPAFHFNILKPYMKIFNESVNIMHAKWQLLASEGSACLDMFEHISLMTLDSLQKCVFSFDSHCQEKPSEYIAAILELSALVSKRHHEILLHIDFLYYLTPDGQRFRRACRLVHDFTDAVIQERRRTLPSQGVDDFLQAKAKSKTLDFIDVLLLSKDEDGKKLSDEDIRAEADTFMFEGHDTTASGLSWVLYHLAKHPEYQERCRQEVQELLKDREPKEIEWDDLAHLPFLTMCMKESLRLHPPVPVISRHVTQDIVLPDGRVIPKGIICLISVFGTHHNPAVWPDPEVYDPFRFDPENIKERSPLAFIPFSAGPRNCIGQTFAMAEMKVVLALTLLRFRVLPDHTEPRRKPELVLRAEGGLWLRVEPLS
- Km [7]: 11.3 µM
- Vmax [7]: 8.91e-05 µmol/min/mg

B8: Cytochrome P450 4A11 (Homo sapiens) (protein)
chain: MSVSVLSPSRLLGDVSGILQAASLLILLLLLIKAVQLYLHRQWLLKALQQFPCPPSHWLFGHIQELQQDQELQRIQKWVETFPSACPHWLWGGKVRVQLYDPDYMKVILGRSDPKSHGSYRFLAPWIGYGLLLLNGQTWFQHRRMLTPAFHYDILKPYVGLMADSVRVMLDKWEELLGQDSPLEVFQHVSLMTLDTIMKCAFSHQGSIQVDRNSQSYIQAISDLNNLVFSRVRNAFHQNDTIYSLTSAGRWTHRACQLAHQHTDQVIQLRKAQLQKEGELEKIKRKRHLDFLDILLLAKMENGSILSDKDLRAEVDTFMFEGHDTTASGISWILYALATHPKHQERCREEIHSLLGDGASITWNHLDQMPYTTMCIKEALRLYPPVPGIGRELSTPVTFPDGRSLPKGIMVLLSIYGLHHNPKVWPNPEVFDPFRFAPGSAQHSHAFLPFSGGSRNCIGKQFAMNELKVATALTLLRFELLPDPTRIPIPIARLVLKSKNGIHLRLRRLPNPCEDKDQL
- Km [8]: 3.1 µM
- Vmax [8]: 1.55e-05 µmol/min/mg
